Experiment [1] concerns the target Human cystatin C (human) (UniProt P01034). The experiment in a line: ITC; 300 uM HSA in the syringe, 30 uM HCC in the cell; PBS; 25.2 °C; MicroCal PEAQ-ITC; single set of identical sites model.
Experiment [2] addresses Human serum albumin (human) (UniProt P02768). The experiment in a line: NMR (1H-15N HSQC and 15N relaxation); 15N-labelled V57G HCC with and without equimolar HSA (around 0.3 mM each); PBS, 90%/10% H2O/D2O, pH 7.0; 298 K.

The Kd is the concentration at which binding is half-saturated. A low value points to higher affinity. What is called stoichiometry N is the number of molecules, sites or subunits per partner or assembly. In experiment [1], “Human serum albumin (from UniProt P02768 25-609) (natural protein)” had a Kd of 1150 nM, a dH of 1.88 kcal/mol and a stoichiometry N of 0.642.
In experiment [2], “V57G mutant of human cystatin C (from UniProt P01034 27-146) (natural protein)” returned a percent of V57G HCC that interacted with HSA of 4%.

These data come from publication PMC12368637.
